Assay results as given in patent US20160000936A1 (AbbVie / Abbott, published 2016).

Experiments:
[1] = target: T1, murine TNF (mouse, UniProt P06804 80-235); experiment: assay not described; table titled 'Source And Binding Information'
T1 construct: also called mouse TNFα; TNFα
T1 sequence (looked up): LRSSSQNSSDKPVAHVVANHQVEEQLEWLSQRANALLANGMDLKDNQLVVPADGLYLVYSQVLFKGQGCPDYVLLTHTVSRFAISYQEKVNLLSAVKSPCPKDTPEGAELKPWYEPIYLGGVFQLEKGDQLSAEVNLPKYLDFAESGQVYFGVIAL

[2] = target: T2, murine IL-17 (mouse, UniProt Q62386 26-158); experiment: as above
T2 construct: also called mouse IL-17
T2 sequence (looked up): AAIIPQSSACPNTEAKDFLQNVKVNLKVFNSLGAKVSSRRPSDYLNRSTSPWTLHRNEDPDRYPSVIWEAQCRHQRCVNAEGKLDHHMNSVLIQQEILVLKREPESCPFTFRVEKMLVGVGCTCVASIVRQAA

B1: anti-murine TNF antibody 8C11 (antibody, mouse IgG2c, V domains shown)
VH: EFQLQQSGPELVKPGASVRISCKASGYSFTDYNMNWVKQSNGKSLEWVGVINPNYGSSTYNQKFKGKATLTVDQSSSTAYMQLNSLTSEDSAVYYCARKWGQLGRGFFDVWGTGTTVTVSS
VL: QIVLSQSPAILSASPGEKVTMTCRASSSVSYMHWFQQKPGSSPKPWIYATSNLASGVPARFSGSGSGTSYSLTISRVEAEDAATYYCQQWSSSPLTFGAGTKLELKR
notes: also called 8C11 anti-TNF antibody; anti-TNFα antibody 8C11
For B1, which IC50 [1] is on record?
Its IC50 is 2 nM.

B2: anti-mouse TNF/IL-17 DVD-Ig protein 8C11/10F7M11 (bispecific antibody, human IgG1, kappa, L234A L235A)
heavy: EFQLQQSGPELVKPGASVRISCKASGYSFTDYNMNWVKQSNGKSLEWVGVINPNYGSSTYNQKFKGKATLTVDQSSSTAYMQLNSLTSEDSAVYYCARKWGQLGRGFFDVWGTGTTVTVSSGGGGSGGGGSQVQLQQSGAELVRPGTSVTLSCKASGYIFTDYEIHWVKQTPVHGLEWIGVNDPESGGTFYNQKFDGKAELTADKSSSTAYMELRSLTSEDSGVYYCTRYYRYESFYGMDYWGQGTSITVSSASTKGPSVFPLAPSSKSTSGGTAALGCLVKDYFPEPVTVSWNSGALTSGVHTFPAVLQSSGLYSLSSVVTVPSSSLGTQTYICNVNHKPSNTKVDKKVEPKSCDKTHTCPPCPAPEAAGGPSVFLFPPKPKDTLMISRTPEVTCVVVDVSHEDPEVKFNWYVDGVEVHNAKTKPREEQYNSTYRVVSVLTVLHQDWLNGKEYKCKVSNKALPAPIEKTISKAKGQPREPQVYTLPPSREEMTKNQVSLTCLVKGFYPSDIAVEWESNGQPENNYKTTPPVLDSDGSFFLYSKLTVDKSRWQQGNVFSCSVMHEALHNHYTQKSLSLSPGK
light: QIVLSQSPAILSASPGEKVTMTCRASSSVSYMHWFQQKPGSSPKPWIYATSNLASGVPARFSGSGSGTSYSLTISRVEAEDAATYYCQQWSSSPLTFGAGTKLELKRGGSGGGGSGQIVLTQSPAIMSASPGEKVTMTCSASSSISYIYWFQQKPGTSPKRWIYATFELASGVPARFSGSGSGTSYSLTISSMEAEDAATYYCHQRSSYPWTFGGGSKLEIKRTVAAPSVFIFPPSDEQLKSGTASVVCLLNNFYPREAKVQWKVDNALQSGNSQESVTEQDSKDSTYSLSSTLTLSKADYEKHKVYACEVTHQGLSSPVTKSFNRGEC
notes: The constant regions of the protein actually assayed are therefore uncertain; also called 8C11/10F7-DVD-Ig protein; 8C11/10F7M11 anti-TNF/IL-17 DVD-Ig protein
How did the IC50 [1] turn out when B2 was run?
The IC50 was 2 nM.

And the IC50 [2]?
Its IC50 is 0.13 nM.
